Molecular target: human G-CSF receptor, class 2 (plasmid pHQ2), form lacking the transmembrane domain (human)
Test: saturation binding of murine 125I-G-CSF to COS cells transfected with pHQ2, Scatchard plot

Kd: 0.44 nM
binding sites /cell: 6000 /cell
Substance: mouse recombinant G-CSF (granulocyte colony-stimulating factor) (from UniProt P09920) (ligand)

— patent publication US5574136
